Experimental data published in the RNAGym collection of RNA variant scans (doi:10.1073/pnas.2313332121).
Fewer inactive variants are shown than the library holds.

B1: TPR 5TU (parent)
chain: GGAUCUUCUCGAUCUAACAAAAAAGACAAAUCUGCCACAAAGCUUGAGAGCAUCUUCGGAUGCAGAGGCGGCAGCCUUCGGUGGCGCGAUAGCGCCAACGUUCUCAACUAUGACACGCAAAACGCGUGCUCCGUUGAAUGGAGUUUAUCAUG

Variants of: B1
Assay: polymerase ribozyme fitness, log enrichment relative to wild type (log ratio); higher = more active; in vitro selection for triplet polymerase activity
How it was run: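 Each subunit of a heterodimeric triplet polymerase ribozyme was represented by a PCR-built, transcribed mutant library that underwent triplicate single-round in vitro selection with frozen incubation at −7 °C. Extended constructs were recovered by gel excision, streptavidin-bead capture and RT-PCR, and Illumina sequencing of input and output libraries kept genotypes with ≥10 input reads and ≥1 read per output. Fitness is the logarithm of genotype enrichment relative to wild-type enrichment, from inverse-variance-weighted replicate averages, with a logarithm base of 2.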
In the case of U9A U13G C32G C51G G70U U127G, the “polymerase ribozyme fitness (log ratio)” value is reported as at most -4.2. For C8G U44A A52C C75A A91G U148G, the “polymerase ribozyme fitness (log ratio)” value was at most -4.2. For U9A A39U G48A G84U C99A G117U, the “polymerase ribozyme fitness (log ratio)” value was at most -4.2. With U9A A73G the “polymerase ribozyme fitness (log ratio)” value was at most -4.2. In the case of U9G C10A C43U C57G C99A, the “polymerase ribozyme fitness (log ratio)” value is reported as at most -4.2. For U9A A17U G58A U151A, the “polymerase ribozyme fitness (log ratio)” value was at most -4.2. With U9C A16U A19U U31A C35U A49U the “polymerase ribozyme fitness (log ratio)” value was at most -4.2. For C8G C54G C85U A121U C131A G136U A137G, the “polymerase ribozyme fitness (log ratio)” value was at most -4.2. In the case of U9A G25U C36U G50C G86A, the “polymerase ribozyme fitness (log ratio)” value is reported as at most -4.2. With U9A A41U A52C G62U C87G A89G C95U C116A A142C U146A A150C the “polymerase ribozyme fitness (log ratio)” value was at most -4.2. For U9G U53A, the “polymerase ribozyme fitness (log ratio)” value was -3.81. With U9G G11C C76A G92C U134C U139G A150G the “polymerase ribozyme fitness (log ratio)” value was at most -4.2. For C8U A22U U56A A73G A121G C123U, the “polymerase ribozyme fitness (log ratio)” value was -4.16. With C8G G92C the “polymerase ribozyme fitness (log ratio)” value was -3.1. For C10A A19C A29U C36U C57U G58A A66C G67C U82G G84U U109A, the “polymerase ribozyme fitness (log ratio)” value was at most -4.2. In the case of U9A A47C, the “polymerase ribozyme fitness (log ratio)” value is reported as -4.13. In the case of U9C A22C C54U C57U G100U C105G, the “polymerase ribozyme fitness (log ratio)” value is reported as at most -4.2. For U9G G50A G83A G133U, the “polymerase ribozyme fitness (log ratio)” value was at most -4.2. In the case of U9A U15A G48C C51G G84A, the “polymerase ribozyme fitness (log ratio)” value is reported as at most -4.2. In the case of U9G C14A C85U G141U, the “polymerase ribozyme fitness (log ratio)” value is reported as -4.19. For U9C A47C A60G G84C C93A C105G A113U U127C, the “polymerase ribozyme fitness (log ratio)” value was at most -4.2. With U9C C10U A16U A19C C85G G94C C105U A106U the “polymerase ribozyme fitness (log ratio)” value was at most -4.2. In the case of C8G G48C G80U G84U C125U G141U, the “polymerase ribozyme fitness (log ratio)” value is reported as at most -4.2. For U9A A24G C54A C87G, the “polymerase ribozyme fitness (log ratio)” value was at most -4.2. For C8U A21G A41C G50A G65C G88A, the “polymerase ribozyme fitness (log ratio)” value was at most -4.2. For C8U A52C G68C, the “polymerase ribozyme fitness (log ratio)” value was at most -4.2. For U9G U77C C85A C108U A120C G141C, the “polymerase ribozyme fitness (log ratio)” value was at most -4.2. For C8U C43U G48C U55A G92C, the “polymerase ribozyme fitness (log ratio)” value was at most -4.2. In the case of U9C G50C C75G C85G C125A, the “polymerase ribozyme fitness (log ratio)” value is reported as at most -4.2. For U9A A17C A20C C54U U55G G58A G67A C116G G143A, the “polymerase ribozyme fitness (log ratio)” value was at most -4.2. For C8U G81A G88A, the “polymerase ribozyme fitness (log ratio)” value was at most -4.2. With U9C A66G C76G G92U C114A the “polymerase ribozyme fitness (log ratio)” value was at most -4.2. For U9G U56A, the “polymerase ribozyme fitness (log ratio)” value was -4.07. For U9G C96U, the “polymerase ribozyme fitness (log ratio)” value was -3.76. With U9G C18G A30U C35G C87G A147G the “polymerase ribozyme fitness (log ratio)” value was at most -4.2. In the case of U9C A28U A30C U61A G88A A91U G92A A119U, the “polymerase ribozyme fitness (log ratio)” value is reported as at most -4.2. In the case of U9A C57G G84U, the “polymerase ribozyme fitness (log ratio)” value is reported as at most -4.2. For C8U C57U A60C A97U A115U, the “polymerase ribozyme fitness (log ratio)” value was at most -4.2. With U9C U55G the “polymerase ribozyme fitness (log ratio)” value was -3.53. For U9A A24U A121U A122U G141A, the “polymerase ribozyme fitness (log ratio)” value was at most -4.2. With U9G A20C C32G A89C U144A the “polymerase ribozyme fitness (log ratio)” value was at most -4.2. With U9A A20C A26G A28U G67U U82C U90G G124A U134C U146A the “polymerase ribozyme fitness (log ratio)” value was at most -4.2. In the case of C8G C125U G141C, the “polymerase ribozyme fitness (log ratio)” value is reported as at most -4.2. With U9C A49G A106G C116U G136A A137C G143A U144C U148G the “polymerase ribozyme fitness (log ratio)” value was at most -4.2. With U9C C10G C36G U55A G84A G126A the “polymerase ribozyme fitness (log ratio)” value was at most -4.2. In the case of U9C G71A C95U U151C, the “polymerase ribozyme fitness (log ratio)” value is reported as at most -4.2. In the case of C8G C35G C105G U144A, the “polymerase ribozyme fitness (log ratio)” value is reported as at most -4.2. With U9G A24U U33C G143C A147C the “polymerase ribozyme fitness (log ratio)” value was at most -4.2. For U9C C76U, the “polymerase ribozyme fitness (log ratio)” value was -2.74. For C8G G11U U31A U90G A137C A150U, the “polymerase ribozyme fitness (log ratio)” value was -4.16. For U9G A16U G80A G83C, the “polymerase ribozyme fitness (log ratio)” value was -4.08. With U9C C54U C85A G136C the “polymerase ribozyme fitness (log ratio)” value was at most -4.2. With U9C C38U C51U A52G G74C C85G G143C U145A the “polymerase ribozyme fitness (log ratio)” value was at most -4.2. With C8U C38U A49G C79G C93A C103G G136U the “polymerase ribozyme fitness (log ratio)” value was at most -4.2. For U9A A41U G74A A89G C132U, the “polymerase ribozyme fitness (log ratio)” value was at most -4.2. For U9G U15G C27G U31A C38A A66C G67A C87U C99G G143C, the “polymerase ribozyme fitness (log ratio)” value was at most -4.2. For U9G C69A U102C, the “polymerase ribozyme fitness (log ratio)” value was at most -4.2. With C8G G84U the “polymerase ribozyme fitness (log ratio)” value was at most -4.2. With C8G U61G G81A C87U G92C A121G C132A U144A G152A the “polymerase ribozyme fitness (log ratio)” value was at most -4.2. With U9A C10U C75A C87A A110G A119C the “polymerase ribozyme fitness (log ratio)” value was at most -4.2. For U9A C125G, the “polymerase ribozyme fitness (log ratio)” value was at most -4.2. With U9G G48C G62A U82A G84U the “polymerase ribozyme fitness (log ratio)” value was at most -4.2. With C8U U31G the “polymerase ribozyme fitness (log ratio)” value was -3.21. In the case of U9C U56A G83A C87U, the “polymerase ribozyme fitness (log ratio)” value is reported as at most -4.2. For C8U A16G A21G A40U, the “polymerase ribozyme fitness (log ratio)” value was -4.04. In the case of C8G G11A A52G A89U C93G, the “polymerase ribozyme fitness (log ratio)” value is reported as at most -4.2. In the case of U9A G141A, the “polymerase ribozyme fitness (log ratio)” value is reported as -2.94. For U9A G141C, the “polymerase ribozyme fitness (log ratio)” value was -3.23. With U9G C87G C93U C125A the “polymerase ribozyme fitness (log ratio)” value was at most -4.2. For U9G A37U C57U C85U G128A G141A U146A, the “polymerase ribozyme fitness (log ratio)” value was at most -4.2. With U9A A26G A66C A122U A137U G143C U145A the “polymerase ribozyme fitness (log ratio)” value was at most -4.2. With C8U A19C A40G C96U A142U the “polymerase ribozyme fitness (log ratio)” value was at most -4.2. In the case of C8U C27U A115G, the “polymerase ribozyme fitness (log ratio)” value is reported as -4.06. For U9G G34U C85A U139A, the “polymerase ribozyme fitness (log ratio)” value was at most -4.2. With C8U G58C the “polymerase ribozyme fitness (log ratio)” value was -2.7. In the case of U9G C32A U55A C57U C93G A142C U148C, the “polymerase ribozyme fitness (log ratio)” value is reported as -4.04. With C8U A22U C27U G70A C85A A89U G92U the “polymerase ribozyme fitness (log ratio)” value was at most -4.2. For U9C C57G G140C, the “polymerase ribozyme fitness (log ratio)” value was at most -4.2. In the case of U9A A16U A19U C27G U77C G84A G100C G133U G141A U145A, the “polymerase ribozyme fitness (log ratio)” value is reported as at most -4.2. In the case of C8U U44G U55A C79U G88A A110U, the “polymerase ribozyme fitness (log ratio)” value is reported as at most -4.2. With C8U G59A C116U the “polymerase ribozyme fitness (log ratio)” value was -3.27. For U9A A26U A47C A49G G84A G86C, the “polymerase ribozyme fitness (log ratio)” value was at most -4.2. For U9C U56A C76A C108G G143U A150G, the “polymerase ribozyme fitness (log ratio)” value was at most -4.2. For C8U A19U G62A G86C A113C, the “polymerase ribozyme fitness (log ratio)” value was at most -4.2.
